Measured values from paper PMC10591882 (Cell reports, 2023).

Target: T1, TBEV envelope protein domain III (EDIII) (Tick-borne encephalitis virus, Western …)
T1 chain: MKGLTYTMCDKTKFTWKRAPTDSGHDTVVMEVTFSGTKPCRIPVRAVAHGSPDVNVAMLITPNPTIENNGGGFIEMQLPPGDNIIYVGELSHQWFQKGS
Test: cell-based or functional assay

B1: human monoclonal antibody T025 (antibody, V domains shown)
VH: QVQLVESGGGVVQPGRSLRLSCAASGFTFSNYGMHWVRQAPGKGLDWVAVISYDAISKSYADSVEGRFTISRDNSKNTLYLQMNSLRAEDSAVYYCAKSPTAIDPPFDYWGQGTLVTVSS
VL: EIVMTQSPATLSVSPGERATLSCWASQSVSSNLAWYQQKPGQAPRLLIYGASTRATGIPARFSASGSGTEFTLTISSLQSEDFAVYYCQQYNNWPPRFGQGTKVEIK
Question: Which “IC50 of neutralisation of TBEV-Hypr (virus neutralization test on PS cells)” value does the source give for B1 here?
Answer: Its value is 29.3 ng/mL.
